Paper PMC2702275, “TIPT2 and geminin interact with basal transcription factors to synergize in transcriptional regulation”
Read-outs that look alike come from different tables or passages of the source.

What was measured:
[1] = target: GST-TIPT2 (TATA-binding protein-like factor-interacting protein, isoform 2) (mouse) (UniProt Q6P926)
TBP [2] = target: T1, TBP (human, UniProt P20226 1-339); conditions: protein: recombinant
[3] = target: T2, GST-TIPT2 (TIPT isoform 2) (mouse, UniProt Q6P926 1-205); conditions: protein: recombinant, tags: N-terminal GST
T2 sequence: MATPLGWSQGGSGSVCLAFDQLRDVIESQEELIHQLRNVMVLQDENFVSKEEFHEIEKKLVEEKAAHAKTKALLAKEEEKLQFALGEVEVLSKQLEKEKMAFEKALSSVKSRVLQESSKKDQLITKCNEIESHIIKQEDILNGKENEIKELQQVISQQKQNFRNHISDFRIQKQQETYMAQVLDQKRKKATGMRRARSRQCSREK

[4] = target: T2, GST-TIPT2 (TIPT isoform 2); conditions: protein: recombinant; tags: N-terminal GST
TBP [5] = target: T1, TBP; conditions: protein: recombinant; label: radiolabel
[6] = target: T2, GST-TIPT2 (TIPT isoform 2); conditions: protein: recombinant; tags: N-terminal GST; label: radiolabel

T1 sequence (P20226 whole entry, canonical isoform): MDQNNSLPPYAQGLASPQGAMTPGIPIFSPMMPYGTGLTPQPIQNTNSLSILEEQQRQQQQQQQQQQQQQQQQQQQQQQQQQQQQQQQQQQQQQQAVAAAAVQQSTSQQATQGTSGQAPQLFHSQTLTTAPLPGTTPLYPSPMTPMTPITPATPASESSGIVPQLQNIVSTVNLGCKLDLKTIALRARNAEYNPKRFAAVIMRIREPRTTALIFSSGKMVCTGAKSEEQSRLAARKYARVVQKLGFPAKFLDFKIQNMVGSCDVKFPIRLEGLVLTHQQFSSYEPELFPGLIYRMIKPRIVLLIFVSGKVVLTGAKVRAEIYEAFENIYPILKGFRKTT

**Q.** What does the source list for “in vitro translated geminin (from UniProt O88513 1-206) (natural protein)”?
**A.** luciferase reporter in U2OS cells: activation of the AdMLP, co-transfection of geminin with TIPT2 [1]: 11 fold; luciferase reporter in U2OS cells: activation of the AdMLP, triple transfection of TBP, TIPT2 and geminin [1]: 16 fold

B1: AdMLP (-40 to -16) (dsDNA)
DNA 1: AAGGGGGGCTATAAAAGGGGGTGGG
DNA 2: CCCACCCCCTTTTATAGCCCCCCTT
**Q.** Does B1 bind (TBP [2])?
**A.** binds

**Q.** Does B1 bind [3]?
**A.** binds

B2: AdMLPm6 (dsDNA)
DNA 1: AAGGGGGGCTATAAAATTGGGTGGG
DNA 2: CCCACCCAATTTTATAGCCCCCCTT
**Q.** Does B2 bind [3]?
**A.** binds

B3: AdMLPm7 (dsDNA)
DNA 1: AAGGGGGGCTATAAAAGGTTGTGGG
DNA 2: CCCACAACCTTTTATAGCCCCCCTT
**Q.** Does B3 bind [3]?
**A.** binds

B4: AdMLPm8 (dsDNA)
DNA 1: AAGGGGGGCTATAAAAGGGGTGGGG
DNA 2: CCCCACCCCTTTTATAGCCCCCCTT
**Q.** Does B4 bind [3]?
**A.** binds

B5: AdMLPm9 (dsDNA)
DNA 1: AAGGGGGGCTATAAAAGGGGGTTTT
DNA 2: AAAACCCCCTTTTATAGCCCCCCTT
**Q.** Does B5 bind [3]?
**A.** binds

B6: AdMLPm5 (dsDNA)
DNA 1: AAGGGGGGTGATAAAAGGGGGTGGG
DNA 2: CCCACCCCCTTTTATCACCCCCCTT
**Q.** Does B6 bind [4]?
**A.** binds

B7: AdMLPm1 (dsDNA)
DNA 1: AAGGGGGGCTGTAAAAGGGGGTGGG
DNA 2: CCCACCCCCTTTTACAGCCCCCCTT
**Q.** What does the source list for B7?
**A.** binding result ([3]; label: radiolabel): binds; binding result (TBP [5]): no binding

B8: AdE4 (dsDNA)
DNA 1: GATCCGGAGTATATATAGGACCTTG
DNA 2: CAAGGTCCTATATATACTCCGGATC
**Q.** Does B8 bind (TBP [2]; label: radiolabel)?
**A.** binds

**Q.** Does B8 bind [6]?
**A.** no binding

B9: AdMLPm2 (dsDNA)
DNA 1: AATTGGGGCTATAAAAGGGGGTGGG
DNA 2: CCCACCCCCTTTTATAGCCCCAATT
**Q.** Does B9 bind [3]?
**A.** binds

B10: AdMLPm4 (dsDNA)
DNA 1: AAGGGGTTCTATAAAAGGGGGTGGG
DNA 2: CCCACCCCCTTTTATAGAACCCCTT
**Q.** Does B10 bind [3]?
**A.** binds
